Patent US7932067B2, “Detection, isolation and uses of renalase (monoamine oxidase C)” (Yale University, priority 2004, dated 2011)

Experiments:
nephrectomized rats [1] = test: Intervention model for chronic renal failure (rat remnant kidney model); type: in vivo; settings: nephrectomized rats, 10, 100, 500 microgram/kg SQ twice per day, 4-8 weeks
Source text: (§1) A rat partial (5/6) nephrectomy or rat remnant kidney model can be used as described (Wada, M et al; J Clin Invest 1997 Dec. 15; 100(12):2977-83). Male rats (2-3 months old, weighing about 150-200 g) are subjected to unilateral nephrectomy (either left or right kidney) first. A 2.0 cm skin incision is made in the ventral midline, with its cranial terminus 1.0 cm caudal to the xyphoid process. A 2.0 cm muscle incision is made along the midline. The right kidney is isolated and cleared of surrounding fat and connective tissue to clearly view the renal artery and vein, and ureter as they enter the hilus of the kidney. Care is exercised to minimize disturbance of the adrenal gland. A ligature (3/0 silk) is placed around the renal artery, vein and ureter. These vessels are then cut proximal to the kidney and the kidney is removed, taking care that the adrenal gland is not disturbed. The second step of the surgical procedure involves the removal of the 2/3 of the remaining kidney in 7-10 days after the first step. Plasma creatinine (Cr) and BUN levels rise dramatically due to the loss of renal mass and function. Over the next several weeks, plasma Cr and BUN levels of surviving animals decline somewhat toward normal values but remain elevated. Renal function then appears to remain relatively constant or stable for a period of variable duration. […]

[2] = Amine oxidase assay of renalase (Amplex Red Monoamine Oxidase Assay Kit) with amines as substrates; type: biochemical, human; settings: GST-renalase fusion protein, battery of amines as substrates, 2 mM
Description: Enzyme assay of renalase was carried out using an Amplex Red Monoamine Oxidase Assay Kit (Molecular Probes, Cat # A-12214) that provides one-step fluorometric method for the continuous measurement of amine oxidase activity using a fluorescence microplate reader. The assay is based on the detection of H2O2 in a horseradish peroxidase-coupled reaction using 10-acetyl-3,7-dihydroxy-phenoxazine (Amplex Red reagent), a highly sensitive and stable probe for H2O2. Experiments were carried out according to manufacturer's instruction with a final substrate concentration of 2 mM.
Therefore, we tested whether it had oxidase activity using a battery of amines as substrates. Renalase fusion protein in E. Coli was generated by cloning renalase cDNA into a Glutathione-S-Transferase (GST)-1-containing pGEX expression vector using the GST Gene Fusion System. […] Its enzymatic activity was unaffected by inhibitors of the FAD-containing amine oxidases, MAO-A and MAO-B (FIG. 4b).
We subsequently tested whether renalase has an oxidase activity using a battery of amines as substrates. […] Thus, it can be concluded that renalase is novel protein that metabolizes dopamine, norepinephrine and epinephrine.

Sprague Dawley rats = test: Hemodynamics measurements after bolus intravenous injection of recombinant renalase; type: in vivo, rat
Description: Sprague Dawley rats (150-250 g) were anesthetized with inactin (100 mg/kg). A catheter (PE-240) was placed in the trachea for airway protection and in the left jugular vein (PE-50) for intravenous infusion of a maintenance fluid solution consisting of normal saline with 6.25% bovine albumin, at a rate of 1.5 ml per 100 g body wt per hour. Core temperature was monitored through a rectal thermometer and body temperature was maintained at 37° C. using a heating pad. Arterial pressure and heart rate were continuously monitored through a PE-50 catheter inserted in the left carotid artery and connected to a pressure transducer (ADInstruments, CO, USA). Hemodynamic recordings were digitized, stored and analyzed using a PowerLab/8SP data acquisition system (ADIntruments). The rats were allowed 1 h to recover after completion of the surgical procedure, and the subsequent 30 minutes served as a control period. The experimental group then received a bolus intravenous injection of 0.5 mg of recombinant renalase in 0.5 ml PBS. The control group was injected with either 0.5 mg BSA or 0.5 mg recombinant glutathione transferase in 0.5 ml of PBS. Blood pressure and heart rate were continuously measured and recorded.
Blood pressure is a function of cardiac output and peripheral vascular resistance, and is regulated by the sympathetic nervous system. Circulating catecholamines control heart rate, myocardial contractility, and the tone of resistance vessels. Since renalase circulates in blood and degrades catecholamines, we examined its in vivo effect on hemodynamic parameters. Within 30 seconds of a single bolus intravenous injection of recombinant renalase, systolic, diastolic and mean arterial pressure decreased by 23.5±1.3, 32.6±2.9 and 28.9±2.7% respectively, (n=4, p<0.001). […] Heart rate remained unchanged initially, and decreased slightly (6.4%) by 60 min, (FIG. 7A, lower panel). In control studies, blood pressure and heart rate were unaffected by either albumin or GST infusion (FIG. 7B). […] Alternatively, renalase could bind to a cognate receptor and modulate myocardial contractility and vascular resistance directly.

nephrectomized rats [3] = test: Prophylactic model for chronic renal failure (rat remnant kidney model); type: in vivo; settings: 100 microgram/kg SQ twice per day, 8-9 weeks
Source text: as §1

[4] = rat, nadir between 60-90 minutes after injection, n=4, p<0.01
[5] = rat, within 30 seconds of single bolus iv injection, 0.5 mg, n=4, p<0.001

B1: Renalase: novel FAD-dependent monoamine oxidase secreted by the kidney that metabolizes dopamine, norepinephrine and epinephrine; SEQ ID NO: 2 (protein, listed as Homo sapiens)
chain: MAQVLIVGAGMTGSLCAALLRRQTSGPLYLAVWDKADDSGGRMTTACSPHNPQCTADLGAQYITCTPHYAKKHQRFYDELLAYGVLRPLSSPIEGMVMKEGDCNFVAPQGISSIIKHYLKESGAEVYFRHRVTQINLRDDKWEVSKQTGSPEQFDLIVLTMPVPEILQLQGDITTLISECQRQQLEAVSYSSRYALGLFYEAGTKIDVPWAGQYITSNPCIRFVSIDNKKRNIESSEIGPSLVIHTTVPFGVTYLEHSIEDVQELVFQQLENILPGLPQPIATKCQKWRHSQVTNAAANCPGQMTLHHKPFLACGGDGFTQSNFDGCITSALCVLEALKNYI
**Q.** For B1, which “expected treatment benefit to Nx rats (plasma BUN, Cr)” value (nephrectomized rats [1]) is on record?
**A.** The value was “slow down chronic renal failure progression”.

**Q.** What about the “rank order potency of catecholamine metabolism” value [2] of the same molecule?
**A.** Its value is “dopamine>epinephrine>norepinephrine”.

**Q.** And the Arterial elastance (Sprague Dawley rats; Table 1, renalase vs control 0.94 ± 0.09, n=3, NS)?
**A.** Its Arterial elastance is 0.8 ± 0.04 mmHg/uL.

**Q.** What about the End diastolic pressure (Sprague Dawley rats; Table 1, renalase vs control 11.3 ± 1.8, n=5, NS) of the same molecule?
**A.** Its End diastolic pressure is 9.3 ± 1.5 mmHg.

**Q.** What about the “Cardiac Output” value (Sprague Dawley rats; Table 1, renalase vs control 45.8 ± 2.8, n=3, p<0.03) of the same molecule?
**A.** The value was 33.2 ± 1.5 mL/min.

**Q.** And the “Mean Arterial Pressure” value (Sprague Dawley rats; Table 1, renalase vs control 106.4 ± 4.7, n=8, p<0.0001)?
**A.** The value was 65.3 ± 3.5 mmHg.

**Q.** And the End systolic pressure (Sprague Dawley rats; Table 1, renalase vs control 127.7 ± 8.1, n=5, p<0.004)?
**A.** Its End systolic pressure is 92.7 ± 2.7 mmHg.

**Q.** What about the Heart rate (Sprague Dawley rats; Table 1, renalase vs control 342 ± 6, n=5, p<0.004) of the same molecule?
**A.** The Heart rate was 304 ± 9 beats/min.

**Q.** What about the Systemic vascular resistance (Sprague Dawley rats; Table 1, renalase vs control 2323 ± 196, n=3, NS) of the same molecule?
**A.** The Systemic vascular resistance was 1966 ± 183 mmHg/L/min.

**Q.** And the dP/dt (Sprague Dawley rats; Table 1, renalase vs control 8604 ± 728, n=5, p<0.001)?
**A.** The dP/dt was 5235 ± 442 mmHg/sec.

**Q.** What about the “decrease in heart rate” value (Sprague Dawley rats; rat, by 60 min after injection) of the same molecule?
**A.** Its value is 6.4%.

**Q.** And the “heart rate, initial response” value (Sprague Dawley rats; rat, initially after bolus iv injection)?
**A.** The value was “unchanged”.

**Q.** What about the “diastolic arterial pressure lower than baseline at nadir” value (Sprague Dawley rats; [4]) of the same molecule?
**A.** Its value is 14.3±1.2%.

**Q.** What about the “mean arterial pressure lower than baseline at nadir” value (Sprague Dawley rats; [4]) of the same molecule?
**A.** Its value is 14.8±1.1%.

**Q.** And the “systolic arterial pressure lower than baseline at nadir” value (Sprague Dawley rats; [4])?
**A.** Its value is 16.5±1.5%.

**Q.** And the “time to recovery of blood pressure after initial fall” value (Sprague Dawley rats; rat, single bolus iv injection)?
**A.** The value was at most 2 min.

**Q.** And the “decrease in diastolic arterial pressure” value (Sprague Dawley rats; [5])?
**A.** Its value is 32.6±2.9%.

**Q.** And the “decrease in mean arterial pressure” value (Sprague Dawley rats; [5])?
**A.** Its value is 28.9±2.7%.

**Q.** And the “decrease in systolic arterial pressure” value (Sprague Dawley rats; [5])?
**A.** Its value is 23.5±1.3%.

**Q.** And the “expected effect on initiation of chronic renal failure (plasma BUN, Cr)” value (nephrectomized rats [3])?
**A.** The value was “prevent, inhibit or delay the initiation of chronic renal failure”.
